Test results from US20240383950A1, “RECOMBINANT GLYCAN BINDING PROTEINS AND ITS USE” (UNICHEM LABORATORIES LIMITED, priority 2021, published 2024).

Columns and labels:
[1] = Stability of expressed protein in TBS buffer; type: physicochemical; conditions: for % Single max impurity / % Total impurity / % purity: 10 mM TBS buffer pH 7.8, 2-8° C.
Method: Stability of expressed protein i.e., SEQ ID NO. 3 was evaluated for 2 weeks using 10 mM TBS buffer with pH 7.8 at 2-8° C.

pI of purified protein = type: physicochemical
Text: The molecular mass and pI of purified protein of SEQ ID NO. 3 and SEQ ID NO.

[2] = system: Ovarian Cancer cell line PA-1; experiment: MTS-PMS cytotoxicity bioassay, PA-1; conditions: 80 μg/ml; 5000 cells/well
Text: 5000 cells/well were used for testing.
(§5) The drug Doxorubicin was used as system suitability (SST) reference.

[3] = system: Blood Cancer Cellline MOLT-3; experiment: MTS-PMS cytotoxicity bioassay, MOLT-3; conditions: 80 μg/ml; 5000 cells/well
Text: 5000 cells/well were used for testing.
as §5

[4] = system: Blood cancer cellline Jurkat E6; experiment: MTS-PMS cytotoxicity bioassay, Jurkat E6; conditions: 80 μg/ml; 5000 cells/well
Text: 5000 cells/well were used for testing.
as §5

[5] = system: ovarian cancer cell line (PA-1); experiment: Cytotoxicity bioassay of conjugate, PA-1; type: cell-based; conditions: 72 hours; Cell titer glow
Method: (§1) Bioassay—Cytotoxicity effect Conjugate of Example 8 against ovarian cancer cell line (PA-1) and human urinary Bladder cancer cell line (T-24) was assayed.
(§2) 5,000 cells/well were plated and incubated at 37° C. overnight.
(§3) Conjugates/vehicle control dilutions were made in respective media and added to cells. Volume added: 50 uL to each well. […] Each concentration was analysed in triplicates. Media-only wells was used as a control to calculate percent viability. Cell titer glow reagent (volume: 50 uL) was added to each well, the plate was shaken for 5 mins and the luminescence was recorded. Drug Treatment Time: 72 hours. Percent viability was calculated by dividing the luminescence signal obtained for each treated well by the untreated well (media-only control) and multiplying by 100.
(§4) Data was next transformed using X=Log(x) and then analysed with nonlinear regression (curve fit), Dose Response inhibition−log (inhibitor) vs response (3 parameters) using PRISM software to determine the IC50 value.

[6] = system: human urinary Bladder cancer cell line (T-24); experiment: Cytotoxicity bioassay of conjugate, T-24; type: cell-based; conditions: 72 hours; Cell titer glow
Method: as §1, §2, §3, §4

[7] = Glycan binding study, N-Glycan array
[8] = Glycan binding study, O-Glycan array, core 2; conditions: O-Glycan array containing 94 glycans
[9] = system: bladder cancer cells (T24); experiment: Colocalization study in cell organelles by confocal microscopy; type: cell-based; conditions: FITC-labelled, 100 μg/mL, 2 h, 37° C.

B1: SEQ ID NO. 3: SEQ ID NO. 2 re-engineered: Serine at 1st position, Glycine at 76th position, Cysteine added at carboxy terminal end (protein)
chain: SYKITVRVYQTNPDAFFHPVEKTVWKYANGGTWTITDDQHVLTMGGSGTSGTLRFHADNGESFTATFGVHNYKRWGDIVTNLAADETGMVINQQYYSQKNREEARERQLSNYQVKNAKGRNFQIVYTEAEGNDLHANLIIGC
% Single max impurity ([1]; 0 Week): 1.31%
% Total impurity ([1]; 0 Week): 1.95%
% purity ([1]; 0 Week): 98.05%
% Single max impurity ([1]; 1 Week): 0.98%
% Total impurity ([1]; 1 Week): 2.66%
% purity ([1]; 1 Week): 97.34%
% Single max impurity ([1]; 2 Week): 0.86%
% Total impurity ([1]; 2 Week): 2.91%
% purity ([1]; 2 Week): 97.09%
stability ([1]; 2 weeks, 10 mM TBS buffer with pH 7.8 at 2-8° C.): stable
pI (pI of purified protein): 6.49
% Cytotoxicity on Cell-lines PA-1 [2]: 82%
% Cytotoxicity on Cell-lines MOLT-3 [3]: 43%
% Cytotoxicity on Cell-lines Jurkat E6 [4]: 68%

B2: Conjugate of Example 8: Protein of SEQ ID NO. 3 conjugated to cytotoxic drug MMAE using MC-Val-Cit-PAB-MMAE; DAR value 1.0 (conjugate)
chain: B1 chain
modifications: MC-Val-Cit-PAB-MMAE conjugate, DAR 1.0
notes: DAR value 1.0
IC50 [5]: 17.7 nM
IC50 [6]: 325 nM

B3: SEQ ID NO. 2: recombinant glycan binding protein, variant of Sclerotium Rolfsii Lectin, disclosed in Indian Patent Application 350/MUM/2009 (protein)
chain: TYKITVRVYQTNPDAFFHPVEKTVWKYANGGTWTITDDQHVLTMGGSGTSGTLRFHADNGESFTATFGVHNYKRWCDIVTNLAADETGMVINQQYYSQKNREEARERQLSNYQVKNAKGRNFQIVYTEAEGNDLHANLIIG
binding to N-glycans [7]: specific binding to N-glycans containing GlcNac at the non-reducing end
Estimated Kd for core 2 [8]: 0.212 µg/mL
colocalization in cell organelles [9]: colocalized in Mitochondria, Endoplasmic reticulum, Golgi bodies and Plasma membrane
Estimated Kd for T antigen (O-Glycan array containing 94 glycans): 0.319 µg/mL
binding profile to O-glycans (O-Glycan array, T-antigen and its extended core structures): strong and broad binding profile to O-glycans
% Cytotoxicity on Cell-lines PA-1 [2]: 81%
% Cytotoxicity on Cell-lines MOLT-3 [3]: 46%
% Cytotoxicity on Cell-lines Jurkat E6 [4]: 61%

B4: SEQ ID NO. 4: SEQ ID NO. 2 re-engineered: Serine at 1st, Glycine at 76th, Serine added at 142nd and Cysteine at 143rd position (protein)
chain: SYKITVRVYQTNPDAFFHPVEKTVWKYANGGTWTITDDQHVLTMGGSGTSGTLRFHADNGESFTATFGVHNYKRWGDIVTNLAADETGMVINQQYYSQKNREEARERQLSNYQVKNAKGRNFQIVYTEAEGNDLHANLIIGSC
pI (pI of purified protein): 6.49
